Assay results from article doi:10.1101/2021.02.13.431076.

Target: GOLD domain of human TMED1 (p24γ1), signal peptide-free (human) (UniProt Q13445)
Assay: SEC

GOLD domain of human TMED1 (p24γ1), signal peptide-free (from UniProt Q13445 24-130) (domain or fragment)
stoichiometry N: 2
